Source: patent publication US11820973B2, “Methods and system for interfering with viability of bacteria and related compounds and compositions” (CALIFORNIA INSTITUTE OF TECHNOLOGY, priority 2011, dated 2023)

Key:
[1] = system: P. aeruginosa PA14 mature biofilms; assay: MBEC assay, dissolution of mature biofilms; type: cell-based, Pseudomonas aeruginosa; details: conalbumin; mature biofilms; 24 h exposure
Procedure: (§1) In some examples, biofilm prevention and dissolution were measured via a high-throughput biofilm assay (MBEC Physiology and Genetics Assay) consisting of a 96-well plate into which a 96-peg plastic lid fits. This lid also fits over a standard 96-well plate, which was subsequently used to test the efficacy of iron chelators. Inoculum was prepared by diluting (30-fold) a 1.0 McFarland suspension of P. aeruginosa PA14 in TSB. 150 μl, was dispensed into each of the 60 inner wells, while 200 μl, of sterile trypticase soy broth (TSB) was placed in each perimeter well. For dissolution experiments, plates were incubated at 37° C. for 24 h, and were transferred to an anaerobic chamber for 24 h at 37° C. in anaerobic TSB containing 50 mM KNO3. Biofilms were then exposed to conalbumin and/or Ferrozine® for 24 h. Each treatment was complemented with the addition of 80 μM ferrous ammonium sulfate. After treatment, lids were rinsed once in 50 mM HEPES, air dried for 10 min and quantified by crystal violet staining. For biofilm prevention, anaerobic inoculum was amended with conalbumin and/or Ferrozine®. Media was replaced every 24 h by transferring the MBEC lid to a sterile plate containing growth media+/− treatments, and biofilms were allowed to develop for 168 h. Biomass was quantified as described above. Biological triplicates and six technical replicates (n=18) were used for each treatment.

[2] = system: P. aeruginosa PA14 wild type; assay: Flow cell biofilm development, wild type, 1% TSB with or without conalbumin
[3] = system: P. aeruginosa; assay: Planktonic growth rates with iron chelators; type: cell-based, Pseudomonas aeruginosa
[4] = system: P. aeruginosa PA14 biofilm; assay: MBEC assay, anaerobic biofilm prevention; type: cell-based, Pseudomonas aeruginosa; details: 100 μM conalbumin, ˜10 μM Fe(II) and 10 μM Fe(III) present
Procedure: as §1

[5] = Day 6, WT, 40 μg/ml conalbumin, 10 μM PCA or PYO

B1: conalbumin: Fe(III)-binding protein of the transferrin family, an Fe(III) chelator; substantially iron-free, from Sigma-Aldrich (protein, UniProt P02789 20-705, looked up)
Ovotransferrin: APPKSVIRWCTISSPEEKKCNNLRDLTQQERISLTCVQKATYLDCIKAIANNEADAISLDGGQAFEAGLAPYKLKPIAAEVYEHTEGSTTSYYAVAVVKKGTEFTVNDLQGKTSCHTGLGRSAGWNIPIGTLLHRGAIEWEGIESGSVEQAVAKFFSASCVPGATIEQKLCRQCKGDPKTKCARNAPYSGYSGAFHCLKDGKGDVAFVKHTTVNENAPDQKDEYELLCLDGSRQPVDNYKTCNWARVAAHAVVARDDNKVEDIWSFLSKAQSDFGVDTKSDFHLFGPPGKKDPVLKDLLFKDSAIMLKRVPSLMDSQLYLGFEYYSAIQSMRKDQLTPSPRENRIQWCAVGKDEKSKCDRWSVVSNGDVECTVVDETKDCIIKIMKGEADAVALDGGLVYTAGVCGLVPVMAERYDDESQCSKTDERPASYFAVAVARKDSNVNWNNLKGKKSCHTAVGRTAGWVIPMGLIHNRTGTCNFDEYFSEGCAPGSPPNSRLCQLCQGSGGIPPEKCVASSHEKYFGYTGALRCLVEKGDVAFIQHSTVEENTGGKNKADWAKNLQMDDFELLCTDGRRANVMDYRECNLAEVPTHAVVVRPEKANKIRDLLERQEKRFGVNGSEKSKFMMFESQNKDLLFKDLTKCLFKVREGTTYKEFLGDKFYTVISSLKTCNPSDILQMCSFLEGK
modifications: iron-free
notes: substantially iron-free, from Sigma-Aldrich
Reduction of established biomass [1]: did not significantly reduce established biomass
Max. biofilm thickness [2, 5]: 32 μm
Substratum coverage [2, 5]: 11.8 ± 1.3%
Total biomass ([2]; Day 6, WT, additives to 1% TSB: 40 μg/ml conalbumin, 10 μM PCA or PYO): 0.80 ± 0.08 μm^3/μm^2
Avg. thickness of biomass ([2]; Day 6, WT, calculated for the area covered by biomass, 40 μg/ml conalbumin, 10 μM PCA or PYO): 9.0 ± 0.7 μm
Biofilm formation with conalbumin (iron-free form) added ([2]; wild type, 1% TSB, 40 μg/ml conalbumin): neither strain formed biofilms
Effect on planktonic growth rates [3]: Neither compound affected planktonic growth rates
Prevention of biofilm growth [4]: ineffective in preventing biofilm growth
